Test results: patent US20040096912A1

Target: µ opioid receptors in brain membranes of heterozygous Cre/S196A mice
Test: [^3H]DAMGO saturation binding, Scatchard analysis, brain membranes of heterozygous Cre/S196A mice

Substance: [^3H]DAMGO ([D-Ala^1.N-McPhe^4.Gly^5-ol]enkephalin) (peptide)
- Kd: 2.45 nM
